Reference: paper PMC10804554, “The DNA damage sensor ATM kinase interacts with the p53 mRNA and guides the DNA damage response pathway” (Molecular Cancer, 2024)

B1: recombinant PI3K domain of ATM (rPI3K), his-tagged (domain or fragment)
chain: FKAEFRLAGGVNLPKIIDCVGSDGKERRQLVKGRDDLRQDAVMQQVFQMCNTLLQRNTETRKRKLTICTYKVVPLSQRSGVLEWCTGTVPIGEFLVNNEDGAHKRYRPNDFSAFQCQKKMMEVQKKSFEEKYEVFMDVCQNFQPVFRYFCMEKFLDPAIWFEKRLAYTRSVATSSIVGYILGLGDRHVQNILINEQSAELVHIDLGVAFEQGKILPTPETVPFRLTRDIVDGMGITGVEGVFRRCCEKTMEVMRNSQETLLTIVEVLLYDPLFDWTMNPLKALYLQQRPEDETELHPTLNADDQECKRNLSDI
B2: recombinant FAT domain of ATM (rFAT), his-tagged (domain or fragment)
chain: EVAKVAQSCAAHFTALLYAEIYADKKSMDDQEKRSLAFEEGSQSTTISSLSEKSKEETGISLQDLLLEIYRSIGEPDSLYGCGGGKMLQPITRLRTYEHEAMWGKALVTYDLETAIPSSTRQAGIIQALQNLGLCHILSVYLKGLDYENKDWCPELEELHYQAAWRNMQWDHCTSVSKEVEGTSYHESLYNALQSLRDREFSTFYESLKYARVKEVEEMCKRSLESVYSLYPTLSRLQAIGELESIGELFSRSVTHRQLSEVYIKWQKHSQLLKDSDFSFQEPIMALRTVILEILMEKEMDNSQRECIKDILTKHLVELSILARTFKNTQLPERAIFQIKQYNSVSCGVSEWQLEEAQVFWAKKEQSLALSILKQMIKKLDASCAANNPSLKLTYTECLRVCGNWLAETCLENPAVIMQTYLEKAVEVAGNYDGESSDELRNGKMKAFLSLARFSDTQYQRIENYMKSSEFENKQALLKRAKEEVGLLREHKIQTNRYTVKVQRELELDELALRALKEDRKRFLCKAVENYINCLLSGEEHDMWVFRLCSLWLENSGVSEVNGMMKRDGMKIPTYKFLPLMYQLAARMGTKMMGGLGFHEVLNNLISRISMDHPHHTLFIILALANA

Molecular target: T1, recombinant MDM2 protein (UniProt Q00987 1-491)
T1 construct: MDM2 E3 ubiquitin ligase, recombinant version used in sandwich ELISA; Source, limits and tags of the recombinant MDM2 may stand in Supplementary Methods; source: recombinant
T1 sequence (Q00987 whole entry): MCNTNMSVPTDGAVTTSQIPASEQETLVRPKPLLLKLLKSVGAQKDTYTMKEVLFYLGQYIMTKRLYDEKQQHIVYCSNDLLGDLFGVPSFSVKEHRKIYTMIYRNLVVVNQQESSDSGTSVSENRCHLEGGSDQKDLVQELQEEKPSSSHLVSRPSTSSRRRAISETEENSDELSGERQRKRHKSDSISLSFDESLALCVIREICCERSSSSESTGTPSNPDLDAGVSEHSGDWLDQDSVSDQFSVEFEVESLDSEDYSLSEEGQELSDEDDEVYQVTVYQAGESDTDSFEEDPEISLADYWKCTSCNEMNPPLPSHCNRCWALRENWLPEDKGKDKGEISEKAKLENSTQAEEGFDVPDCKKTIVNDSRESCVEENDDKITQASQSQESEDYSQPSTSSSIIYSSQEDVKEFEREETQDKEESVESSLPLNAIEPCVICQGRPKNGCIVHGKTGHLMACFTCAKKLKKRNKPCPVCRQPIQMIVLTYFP
Assay: ELISA; protein-protein sandwich ELISA on 96-well plates with his-tagged recombinant FAT or PI3K domain and recombinant MDM2; details in Supplementary Methods

Row | Binder | Kd
1 | B1 | 186 nM
2 | B2 | 30 nM
